From IntAct's records for PubMed 39009827

B1: Zinc finger protein 526 (Homo sapiens), Q8TF50 (parent)
chain: MAEVVAEVAEMPTQMSPGAVEMSTPMSAEMMEMSTEVTEMTPGEALASSLFFQHHQFMCSECGSLYNTLEEVLSHQEQHMLAVSEEEALTTQNVGLEPELVPGAEGPFQCGECSQLILSPGELLAHQDAHLRESANQIQYQCWDCQELFPSPELWVAHRKAQHLSATVAEPPVPPPLPPPTPLPPPSPPSEVKMEPYECPECSTLCATPEEFLEHQGTHFDSLEKEERNGLEEEEEDDEEDEEDDEEMEDEEAMAEVGDDAVGGDESTAGWAQGCGDCPQHQPSAGARRQHRRTAHSPASATHPFHCSQCQRSFSSANRLQAHGRAHVGGTHECTTCSKVFKKAASLEQHLRLHRGEARYLCVDCGRGFGTELTLVAHRRAHTANPLHRCRCGKTFSNMTKFLYHRRTHAGKSGAPPTGATAPPAPAEPTPPPPPPAPPAQLPCPQCSKSFASASRLSRHRRAVHGPPERRHRCGVCGKGFKKLIHVRNHLRTHTGERPFQCHSCGKTFASLANLSRHQLTHTGARPYQCLDCGKRFTQSSNLQQHRRLHLRPVAFARAPRLPITGLYNKSPYYCGTCGRWFRAMAGLRLHQRVHARARTLTLQPPRSPSPAPPPPPEPQQTIMCTELGETIAIIETSQPLALEDTLQLCQAALGASEAGGLLQLDTAFV
B2: ATP-binding cassette sub-family C member 6 (Homo sapiens), O95255 (parent)
chain: MAAPAEPCAGQGVWNQTEPEPAATSLLSLCFLRTAGVWVPPMYLWVLGPIYLLFIHHHGRGYLRMSPLFKAKMVLGFALIVLCTSSVAVALWKIQQGTPEAPEFLIHPTVWLTTMSFAVFLIHTERKKGVQSSGVLFGYWLLCFVLPATNAAQQASGAGFQSDPVRHLSTYLCLSLVVAQFVLSCLADQPPFFPEDPQQSNPCPETGAAFPSKATFWWVSGLVWRGYRRPLRPKDLWSLGRENSSEELVSRLEKEWMRNRSAARRHNKAIAFKRKGGSGMKAPETEPFLRQEGSQWRPLLKAIWQVFHSTFLLGTLSLIISDVFRFTVPKLLSLFLEFIGDPKPPAWKGYLLAVLMFLSACLQTLFEQQNMYRLKVLQMRLRSAITGLVYRKVLALSSGSRKASAVGDVVNLVSVDVQRLTESVLYLNGLWLPLVWIVVCFVYLWQLLGPSALTAIAVFLSLLPLNFFISKKRNHHQEEQMRQKDSRARLTSSILRNSKTIKFHGWEGAFLDRVLGIRGQELGALRTSGLLFSVSLVSFQVSTFLVALVVFAVHTLVAENAMNAEKAFVTLTVLNILNKAQAFLPFSIHSLVQARVSFDRLVTFLCLEEVDPGVVDSSSSGSAAGKDCITIHSATFAWSQESPPCLHRINLTVPQGCLLAVVGPVGAGKSSLLSALLGELSKVEGFVSIEGAVAYVPQEAWVQNTSVVENVCFGQELDPPWLERVLEACALQPDVDSFPEGIHTSIGEQGMNLSGGQKQRLSLARAVYRKAAVYLLDDPLAALDAHVGQHVFNQVIGPGGLLQGTTRILVTHALHILPQADWIIVLANGAIAEMGSYQELLQRKGALMCLLDQARQPGDRGEGETEPGTSTKDPRGTSAGRRPELRRERSIKSVPEKDRTTSEAQTEVPLDDPDRAGWPAGKDSIQYGRVKATVHLAYLRAVGTPLCLYALFLFLCQQVASFCRGYWLSLWADDPAVGGQQTQAALRGGIFGLLGCLQAIGLFASMAAVLLGGARASRLLFQRLLWDVVRSPISFFERTPIGHLLNRFSKETDTVDVDIPDKLRSLLMYAFGLLEVSLVVAVATPLATVAILPLFLLYAGFQSLYVVSSCQLRRLESASYSSVCSHMAETFQGSTVVRAFRTQAPFVAQNNARVDESQRISFPRLVADRWLAANVELLGNGLVFAAATCAVLSKAHLSAGLVGFSVSAALQVTQTLQWVVRNWTDLENSIVSVERMQDYAWTPKEAPWRLPTCAAQPPWPQGGQIEFRDFGLRYRPELPLAVQGVSFKIHAGEKVGIVGRTGAGKSSLASGLLRLQEAAEGGIWIDGVPIAHVGLHTLRSRISIIPQDPILFPGSLRMNLDLLQEHSDEAIWAALETVQLKALVASLPGQLQYKCADRGEDLSVGQKQLLCLARALLRKTQILILDEATAAVDPGTELQMQAMLGSWFAQCTVLLIAHRLRSVMDCARVLVMDKGQVAESGSPAQLLAQKGLFYRLAQESGLV
B3: Zinc finger protein GLIS2 (Homo sapiens), Q9BZE0 (parent)
chain: MHSLDEPLDLKLSITKLRAAREKRERTLGVVRPRALHRELGLVDDSPTPGSPGSPPSGFLLNSKFPEKVEGRFSAAPLVDLSLSPPSGLDSPNGSSSLSPERQGNGDLPPVPSASDFQPLRYLDGVPSSFQFFLPLGSGGALHLPASSFLTPPKDKCLSPDLPLPKQLVCRWAKCNQLFELLQDLVDHVNDYHVKPEKDAGYCCHWEGCARHGRGFNARYKMLIHIRTHTNEKPHRCPTCSKSFSRLENLKIHNRSHTGEKPYVCPYEGCNKRYSNSSDRFKHTRTHYVDKPYYCKMPGCHKRYTDPSSLRKHIKAHGHFVSHEQQELLQLRPPPKPPLPAPDGGPYVSGAQIIIPNPAALFGGPGLPGLPLPLAPGPLDLSALACGNGGGSGGGGGMGPGLPGPVLPLNLAKNPLLPSPFGAGGLGLPVVSLLAGAAGGKAEGEKGRGSVPTRALGMEGHKTPLERTESSCSRPSPDGLPLLPGTVLDLSTGVNSAASSPEALAPGWVVIPPGSVLLKPAVVN
B4: BCL11 transcription factor A (Homo sapiens), Q9H165 (parent)
chain: MSRRKQGKPQHLSKREFSPEPLEAILTDDEPDHGPLGAPEGDHDLLTCGQCQMNFPLGDILIFIEHKRKQCNGSLCLEKAVDKPPSPSPIEMKKASNPVEVGIQVTPEDDDCLSTSSRGICPKQEHIADKLLHWRGLSSPRSAHGALIPTPGMSAEYAPQGICKDEPSSYTCTTCKQPFTSAWFLLQHAQNTHGLRIYLESEHGSPLTPRVGIPSGLGAECPSQPPLHGIHIADNNPFNLLRIPGSVSREASGLAEGRFPPTPPLFSPPPRHHLDPHRIERLGAEEMALATHHPSAFDRVLRLNPMAMEPPAMDFSRRLRELAGNTSSPPLSPGRPSPMQRLLQPFQPGSKPPFLATPPLPPLQSAPPPSQPPVKSKSCEFCGKTFKFQSNLVVHRRSHTGEKPYKCNLCDHACTQASKLKRHMKTHMHKSSPMTVKSDDGLSTASSPEPGTSDLVGSASSALKSVVAKFKSENDPNLIPENGDEEEEEDDEEEEEEEEEEEEELTESERVDYGFGLSLEAARHHENSSRGAVVGVGDESRALPDVMQGMVLSSMQHFSEAFHQVLGEKHKRGHLAEAEGHRDTCDEDSVAGESDRIDDGTVNGRGCSPGESASGGLSKKLLLGSPSSLSPFSKRIKLEKEFDLPPAAMPNTENVYSQWLAGYAASRQLKDPFLSFGDSRQSPFASSSEHSSENGSLRFSTPPGELDGGISGRSGTGSGGSTPHISGPGPGRPSSKEGRRSDTCEYCGKVFKNCSNLTVHRRSHTGERPYKCELCNYACAQSSKLTRHMKTHGQVGKDVYKCEICKMPFSVYSTLEKHMKKWHSDRVLNNDIKTE
B5: Fanconi anemia group A protein (Homo sapiens), O15360 (parent)
chain: MSDSWVPNSASGQDPGGRRRAWAELLAGRVKREKYNPERAQKLKESAVRLLRSHQDLNALLLEVEGPLCKKLSLSKVIDCDSSEAYANHSSSFIGSALQDQASRLGVPVGILSAGMVASSVGQICTAPAETSHPVLLTVEQRKKLSSLLEFAQYLLAHSMFSRLSFCQELWKIQSSLLLEAVWHLHVQGIVSLQELLESHPDMHAVGSWLFRNLCCLCEQMEASCQHADVARAMLSDFVQMFVLRGFQKNSDLRRTVEPEKMPQVTVDVLQRMLIFALDALAAGVQEESSTHKIVRCWFGVFSGHTLGSVISTDPLKRFFSHTLTQILTHSPVLKASDAVQMQREWSFARTHPLLTSLYRRLFVMLSAEELVGHLQEVLETQEVHWQRVLSFVSALVVCFPEAQQLLEDWVARLMAQAFESCQLDSMVTAFLVVRQAALEGPSAFLSYADWFKASFGSTRGYHGCSKKALVFLFTFLSELVPFESPRYLQVHILHPPLVPGKYRSLLTDYISLAKTRLADLKVSIENMGLYEDLSSAGDITEPHSQALQDVEKAIMVFEHTGNIPVTVMEASIFRRPYYVSHFLPALLTPRVLPKVPDSRVAFIESLKRADKIPPSLYSTYCQACSAAEEKPEDAALGVRAEPNSAEEPLGQLTAALGELRASMTDPSQRDVISAQVAVISERLRAVLGHNEDDSSVEISKIQLSINTPRLEPREHMAVDLLLTSFCQNLMAASSVAPPERQGPWAALFVRTMCGRVLPAVLTRLCQLLRHQGPSLSAPHVLGLAALAVHLGESRSALPEVDVGPPAPGAGLPVPALFDSLLTCRTRDSLFFCLKFCTAAISYSLCKFSSQSRDTLCSCLSPGLIKKFQFLMFRLFSEARQPLSEEDVASLSWRPLHLPSADWQRAALSLWTHRTFREVLKEEDVHLTYQDWLHLELEIQPEADALSDTERQDFHQWAIHEHFLPESSASGGCDGDLQAACTILVNALMDFHQSSRSYDHSENSDLVFGGRTGNEDIISRLQEMVADLELQQDLIVPLGHTPSQEHFLFEIFRRRLQALTSGWSVAASLQRQRELLMYKRILLRLPSSVLCGSSFQAEQPITARCEQFFHLVNSEMRNFCSHGGALTQDITAHFFRGLLNACLRSRDPSLMVDFILAKCQTKCPLILTSALVWWPSLEPVLLCRWRRHCQSPLPRELQKLQEGRQFASDFLSPEAASPAPNPDWLSAAALHFAIQQVREENIRKQLKKLDCEREELLVFLFFFSLMGLLSSHLTSNSTTDLPKAFHVCAAILECLEKRKISWLALFQLTESDLRLGRLLLRVAPDQHTRLLPFAFYSLLSYFHEDAAIREEAFLHVAVDMYLKLVQLFVAGDTSTVSPPAGRSLELKGQGNPVELITKARLFLLQLIPRCPKKSFSHVAELLADRGDCDPEVSAALQSRQQAAPDADLSQEPHLF
B6: BCL11 transcription factor A (Homo sapiens), Q9H165 (parent)
chain: B4 chain
partner: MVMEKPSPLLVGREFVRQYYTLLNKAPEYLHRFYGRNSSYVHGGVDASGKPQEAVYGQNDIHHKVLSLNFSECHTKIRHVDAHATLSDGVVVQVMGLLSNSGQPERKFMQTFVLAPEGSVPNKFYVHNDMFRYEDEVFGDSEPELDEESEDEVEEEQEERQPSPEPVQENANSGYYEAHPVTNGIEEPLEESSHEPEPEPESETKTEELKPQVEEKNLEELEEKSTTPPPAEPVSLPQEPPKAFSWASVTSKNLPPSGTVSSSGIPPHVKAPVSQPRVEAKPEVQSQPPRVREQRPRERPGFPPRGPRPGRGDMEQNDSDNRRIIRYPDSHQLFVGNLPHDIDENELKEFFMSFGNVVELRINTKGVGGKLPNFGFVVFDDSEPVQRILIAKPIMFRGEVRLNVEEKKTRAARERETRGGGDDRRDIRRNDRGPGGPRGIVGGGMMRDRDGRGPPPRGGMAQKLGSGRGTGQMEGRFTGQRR
B7: Epithelial sodium channel subunit beta (Homo sapiens), P51168 (parent)
chain: MHVKKYLLKGLHRLQKGPGYTYKELLVWYCDNTNTHGPKRIICEGPKKKAMWFLLTLLFAALVCWQWGIFIRTYLSWEVSVSLSVGFKTMDFPAVTICNASPFKYSKIKHLLKDLDELMEAVLERILAPELSHANATRNLNFSIWNHTPLVLIDERNPHHPMVLDLFGDNHNGLTSSSASEKICNAHGCKMAMRLCSLNRTQCTFRNFTSATQALTEWYILQATNIFAQVPQQELVEMSYPGEQMILACLFGAEPCNYRNFTSIFYPHYGNCYIFNWGMTEKALPSANPGTEFGLKLILDIGQEDYVPFLASTAGVRLMLHEQRSYPFIRDEGIYAMSGTETSIGVLVDKLQRMGEPYSPCTVNGSEVPVQNFYSDYNTTYSIQACLRSCFQDHMIRNCNCGHYLYPLPRGEKYCNNRDFPDWAHCYSDLQMSVAQRETCIGMCKESCNDTQYKMTISMADWPSEASEDWIFHVLSQERDQSTNITLSRKGIVKLNIYFQEFNYRTIEESAANNIVWLLSNLGGQFGFWMGGSVLCLIEFGEIIIDFVWITIIKLVALAKSLRQRRAQASYAGPPPTVAELVEAHTNFGFQPDTAPRSPNTGPYPSEQALPIPGTPPPNYDSLRLQPLDVIESDSEGDAI

Variants of: B1
Conditions: with ima3_human KPNA4, O00629
Sequence of ima3_human KPNA4, O00629 (O00629 whole entry): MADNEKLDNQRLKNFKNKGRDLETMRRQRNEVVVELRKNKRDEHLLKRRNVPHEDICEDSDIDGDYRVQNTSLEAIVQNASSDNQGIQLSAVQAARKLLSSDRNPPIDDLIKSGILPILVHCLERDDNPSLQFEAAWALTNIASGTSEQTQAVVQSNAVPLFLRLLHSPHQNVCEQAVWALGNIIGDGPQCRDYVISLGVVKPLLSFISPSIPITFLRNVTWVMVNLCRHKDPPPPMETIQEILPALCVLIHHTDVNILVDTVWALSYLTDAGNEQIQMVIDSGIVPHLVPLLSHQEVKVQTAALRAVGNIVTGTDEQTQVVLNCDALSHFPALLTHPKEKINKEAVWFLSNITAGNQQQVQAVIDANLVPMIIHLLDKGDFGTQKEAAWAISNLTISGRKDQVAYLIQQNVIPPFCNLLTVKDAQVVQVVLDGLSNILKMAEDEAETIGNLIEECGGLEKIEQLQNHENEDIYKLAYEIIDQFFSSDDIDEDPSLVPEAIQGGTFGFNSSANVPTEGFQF

| effect of a mutation on the interaction | Variant |
| --- | --- |
| disrupting interaction strength | K160T |

Variants of: B1
Conditions: with ima3_human KPNA4, O00629
Remark: another data set of the same source

| effect of a mutation on the interaction | Variant |
| --- | --- |
| decreasing interaction strength | K160T |

Variants of: B2
Conditions: with mlp3b_human MAP1LC3B

| effect of a mutation on the interaction | Variant |
| --- | --- |
| decreasing interaction strength | L1226I |

Variants of: B2
Conditions: with mlp3a_human MAP1LC3A

| effect of a mutation on the interaction | Variant |
| --- | --- |
| decreasing interaction strength | L1226I |

Variants of: B3
Conditions: with ptbp1_human PTBP1, P26599
Sequence of ptbp1_human PTBP1, P26599 (P26599 whole entry): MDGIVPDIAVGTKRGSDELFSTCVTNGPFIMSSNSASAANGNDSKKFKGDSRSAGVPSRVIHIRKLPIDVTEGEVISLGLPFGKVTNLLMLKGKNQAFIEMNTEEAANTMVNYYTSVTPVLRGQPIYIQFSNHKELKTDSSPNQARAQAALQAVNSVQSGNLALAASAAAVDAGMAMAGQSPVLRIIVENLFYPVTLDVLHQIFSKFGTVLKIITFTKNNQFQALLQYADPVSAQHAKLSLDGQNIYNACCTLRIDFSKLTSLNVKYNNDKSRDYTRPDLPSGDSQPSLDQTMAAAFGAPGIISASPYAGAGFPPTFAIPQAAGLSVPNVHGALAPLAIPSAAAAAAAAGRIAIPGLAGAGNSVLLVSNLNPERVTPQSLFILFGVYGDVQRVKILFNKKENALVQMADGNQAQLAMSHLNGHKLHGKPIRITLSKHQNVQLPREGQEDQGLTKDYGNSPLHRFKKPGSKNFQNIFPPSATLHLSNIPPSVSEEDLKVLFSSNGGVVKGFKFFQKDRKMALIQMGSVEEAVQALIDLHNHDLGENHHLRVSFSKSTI

| effect of a mutation on the interaction | Variant |
| --- | --- |
| decreasing interaction strength | P420L |

Variants of: B4
Conditions: with clh1_human CLTC

| effect of a mutation on the interaction | Variant |
| --- | --- |
| increasing interaction strength | C48F |

Variants of: B5
Conditions: with cskp_human CASK

| effect of a mutation on the interaction | Variant |
| --- | --- |
| causing an interaction | S4L |

Variants of: B6
Conditions: with G3BP2, Q9UN86

| effect of a mutation on the interaction | Variant |
| --- | --- |
| causing an interaction | C48F |

Variants of: B7
Conditions: with nedd4_human NEDD4, P46934
Sequence of nedd4_human NEDD4, P46934 (P46934 whole entry): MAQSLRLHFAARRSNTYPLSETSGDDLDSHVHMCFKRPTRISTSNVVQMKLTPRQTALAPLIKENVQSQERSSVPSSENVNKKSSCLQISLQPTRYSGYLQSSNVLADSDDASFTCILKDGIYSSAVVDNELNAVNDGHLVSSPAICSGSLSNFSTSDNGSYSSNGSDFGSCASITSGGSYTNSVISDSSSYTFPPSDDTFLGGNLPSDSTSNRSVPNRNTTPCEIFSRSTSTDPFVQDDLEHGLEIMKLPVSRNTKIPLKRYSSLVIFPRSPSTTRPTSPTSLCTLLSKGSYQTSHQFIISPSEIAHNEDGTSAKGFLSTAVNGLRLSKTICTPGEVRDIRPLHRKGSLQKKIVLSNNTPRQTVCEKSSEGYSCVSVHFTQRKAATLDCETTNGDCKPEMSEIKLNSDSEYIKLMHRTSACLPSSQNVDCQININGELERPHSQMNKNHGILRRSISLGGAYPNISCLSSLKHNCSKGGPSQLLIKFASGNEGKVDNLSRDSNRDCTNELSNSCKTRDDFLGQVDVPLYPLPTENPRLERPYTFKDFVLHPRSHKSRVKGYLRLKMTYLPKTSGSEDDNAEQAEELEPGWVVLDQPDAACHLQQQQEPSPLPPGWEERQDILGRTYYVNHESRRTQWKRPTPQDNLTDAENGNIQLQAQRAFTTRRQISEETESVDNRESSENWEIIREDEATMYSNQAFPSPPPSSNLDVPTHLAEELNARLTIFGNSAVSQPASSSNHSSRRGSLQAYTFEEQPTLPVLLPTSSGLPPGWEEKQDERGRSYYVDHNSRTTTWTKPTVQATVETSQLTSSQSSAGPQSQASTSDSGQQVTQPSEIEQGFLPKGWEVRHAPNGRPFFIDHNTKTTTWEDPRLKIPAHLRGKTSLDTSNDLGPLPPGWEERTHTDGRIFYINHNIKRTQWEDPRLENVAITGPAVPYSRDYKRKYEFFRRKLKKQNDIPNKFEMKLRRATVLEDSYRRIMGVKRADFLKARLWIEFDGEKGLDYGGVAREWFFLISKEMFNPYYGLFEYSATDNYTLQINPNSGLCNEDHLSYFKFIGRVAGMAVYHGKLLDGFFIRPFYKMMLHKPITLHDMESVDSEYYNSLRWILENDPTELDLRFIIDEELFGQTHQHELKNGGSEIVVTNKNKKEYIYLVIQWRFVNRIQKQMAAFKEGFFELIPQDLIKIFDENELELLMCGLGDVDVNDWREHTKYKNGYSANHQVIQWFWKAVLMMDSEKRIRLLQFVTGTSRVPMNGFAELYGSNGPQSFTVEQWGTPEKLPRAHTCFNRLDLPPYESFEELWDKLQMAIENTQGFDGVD

| effect of a mutation on the interaction | Variant |
| --- | --- |
| decreasing interaction strength | P617S |
| decreasing interaction strength | Y620H |
| decreasing interaction strength | P618R |

Variants of: B7
Conditions: with wwtr1_human WWTR1, Q9GZV5
Sequence of wwtr1_human WWTR1, Q9GZV5 (Q9GZV5 whole entry): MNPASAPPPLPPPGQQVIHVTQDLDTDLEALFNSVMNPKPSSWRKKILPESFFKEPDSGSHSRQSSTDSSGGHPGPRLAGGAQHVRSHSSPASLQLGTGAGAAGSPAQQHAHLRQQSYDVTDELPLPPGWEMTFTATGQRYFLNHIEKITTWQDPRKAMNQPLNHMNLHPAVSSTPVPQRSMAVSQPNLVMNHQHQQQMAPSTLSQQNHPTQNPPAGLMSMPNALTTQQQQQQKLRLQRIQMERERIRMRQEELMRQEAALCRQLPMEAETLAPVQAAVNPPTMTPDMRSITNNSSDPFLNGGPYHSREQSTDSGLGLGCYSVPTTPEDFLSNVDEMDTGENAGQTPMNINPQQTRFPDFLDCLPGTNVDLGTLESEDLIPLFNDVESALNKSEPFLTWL

| effect of a mutation on the interaction | Variant |
| --- | --- |
| decreasing interaction strength | P617S |
| decreasing interaction strength | Y620H |
| decreasing interaction strength | P618R |

Variants of: B7
Conditions: with nedd4_human NEDD4, P46934
Remark: another data set of the same source

| effect of a mutation on the interaction | Variant |
| --- | --- |
| decreasing interaction strength | P616R |
